According to the RNAGym collection of RNA variant scans (doi:10.1093/nar/gkz1192):

B1: CPEB3 Ribozyme (parent)
chain: UAACAGGGGGCCACAGCAGAAGCGUUCACGUCGCAGCCCCUGUCAGAUUCUGGUGAAUCUGCGAAUUCUGCUGUAUAUCUC

Variants of: B1
Experiment: self-cleavage, relative activity (ratio to wild type); higher = more cleavage; in vitro, sequencing
Procedure, shortened: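 Barcoded CPEB3 ribozyme mutants, produced by rounds of error-prone PCR, self-cleaved while being transcribed with T7 RNA polymerase for 5 hours at 37°C and during a subsequent 15 min DNase I step before EDTA was added. Sequencing of template-switched cDNA on Illumina gave cleaved and total reads, and DNA sequencing assigned barcodes to variants. Each variant's relative activity is its cleaved/total read fraction divided by the unmutated ribozyme's fraction, averaged across three batches. A variant needed a minimum of 5 reads.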

| Variant | self-cleavage |
| --- | --- |
| C50A U72C | 0.86 |
| C50A U78C | 0.71 |
| C50A U78G | 1.06 |
| U49A G63U | 0.63 |
| U49A G63A | 0.69 |
| U49A G63C | 0.88 |
| U48G U67A | 0.38 |
| U49C U54A | 0.42 |
| U49C U54G | 0.25 |
| U49C U54C | 0.38 |
| U49A U54G | 0.27 |
| U49A U54C | 0.54 |
| U49A U54A | 0.81 |
| U49C G55U | 0.24 |
| U49C G55A | 0.18 |
| C50A U76A | 0.65 |
| C50A U76C | 1.02 |
| U51C C59A | 0.29 |
| U51C C59U | 0.68 |
| U51A U80G | 1.18 |
| U51A U80A | 1.07 |
| U51A U80C | 1 |
| U51C C68U | 1.14 |
| U51C C68G | 0.69 |

| Variant | self-cleavage |
| --- | --- |
| U49C C79U | 0.76 |
| C50A U67C | 0.2 |
| C50A U67A | 0.38 |
| U49C G63U | 0.35 |
| U49C G63A | 0.39 |
| U51A U54G | 0.43 |
| U51A U54C | 1.07 |
| U51A U54A | 1.04 |
| C50U U67C | 0.31 |
| C50G U78C | 0.71 |
| U49C U78C | 0.42 |
| U49C U78G | 0.39 |
| U49C U78A | 0.46 |
| U49A U67C | 0.3 |
| U49A U67A | 0.57 |
| C50A A77U | 0.67 |
| U49G A56G | 0.35 |
| U49G A56U | 0.65 |
| U49G U72C | 0.72 |
| C50U A65G | 0.4 |
| C50U C79U | 1.16 |
| U48G U54C | 0.19 |
| C50A A64C | 0.43 |
| C50A A64G | 0.73 |

| Variant | self-cleavage |
| --- | --- |
| U49C U76C | 0.48 |
| U49C U76A | 0.49 |
| U49G C79U | 0.77 |
| U51A A77U | 1.03 |
| U51A A77G | 0.93 |
| C50U U80C | 1.07 |
| U51A U66A | 0.51 |
| U51A U66C | 0.42 |
| C50G U69C | 0.14 |
| C50G U69A | 0.17 |
| U49A A57G | 0.5 |
| U49A A57U | 0.4 |
| C50A U69C | 0.49 |
| C50A U69A | 0.42 |
| U49A C62U | 0.44 |
| U49A C62A | 0.26 |
| U48G A64U | 0.17 |
| U48G A64G | 0.45 |
| U49A U76C | 0.69 |
| C50U U51A | 1.17 |
| C50U U51C | 0.8 |
| U49C G70U | 0.2 |
| U49C G70A | 0.44 |
| U51C A65G | 0.56 |

| Variant | self-cleavage |
| --- | --- |
| U51C A65U | 0.27 |
| U49G A77G | 0.39 |
| U49C A64G | 0.27 |
| U49C A64U | 0.24 |
| U49C A64C | 0.26 |
| U51A A64U | 0.46 |
| U51A A64G | 0.93 |
| U51A A64C | 0.51 |
| U49A U80A | 0.88 |
| U49A U80G | 0.88 |
| U49A U80C | 0.69 |
| U49C U69G | 0.25 |
| U49C U69C | 0.31 |
| U49C U69A | 0.25 |
| U49G U54C | 0.44 |
| U51A G70A | 0.61 |
| C50U A56G | 0.85 |
| C50U A56U | 0.82 |
| C50U G63U | 0.82 |
| U51A U69C | 0.67 |
| U51A U69A | 0.64 |
| U49G A75G | 0.42 |
| U48G U78C | 0.59 |
| U49C U58C | 0.24 |

| Variant | self-cleavage |
| --- | --- |
| U49C U58A | 0.14 |
| U49A U72C | 0.87 |
| U49A U72G | 0.4 |
| U49A U72A | 0.44 |
| U51A C68U | 1.04 |
| U51A C68A | 0.4 |
| U49A C71U | 0.26 |
| U49A C71G | 0.24 |
| U49C U72A | 0.26 |
| U49C U72G | 0.26 |
| U49C U72C | 0.36 |
| U49A A56G | 0.59 |
| U49A A56U | 1.19 |
| U48G G53C | 0.55 |
| U49A U60A | 0.21 |
| U49A U60C | 0.32 |
| C50A A65G | 0.31 |
| C50A G73A | 1.24 |
| U51C A56U | 0.74 |
| U51C A56G | 0.84 |
| U51C A56C | 0.31 |
| U48G U49C | 0.46 |
| U48G U49A | 0.52 |
| U49G U60C | 0.23 |

| Variant | self-cleavage |
| --- | --- |
| U51C C62U | 0.31 |
| U51C C62A | 0.31 |
| U51C C62G | 0.39 |
| C50A A56G | 0.43 |
| U51A C81A | 1.1 |
| C50U U66C | 0.45 |
| C50U U66A | 0.22 |
| U49G G63A | 0.28 |
| C50U U54C | 0.77 |
| C50U U54G | 0.74 |
| U49C U80A | 0.51 |
| U49C U80G | 0.49 |
| U49C U80C | 0.61 |
| U49C C81U | 0.68 |
| U49C C81A | 0.76 |
| U49C C81G | 0.51 |
| C50G A57G | 0.51 |
| C50U A64U | 0.52 |
| C50U A64G | 0.99 |
| U49A U66A | 0.24 |
| U49A U66C | 0.38 |
| U49A G52A | 0.84 |
| U49A C59A | 0.34 |
| U49A C59U | 0.19 |

| Variant | self-cleavage |
| --- | --- |
| U49C G52A | 0.8 |
| C50U A77G | 1.11 |
| U51A U78C | 0.83 |
| U51A U78G | 1.04 |
| U51A U78A | 1 |
| C50U U72C | 1.13 |
| C50U U72A | 0.28 |
| C50U U58C | 0.35 |
| C50A U80A | 0.83 |
| C50A U80C | 1.05 |
| C50A U66C | 0.3 |
| C50U U69C | 0.41 |
| U51A A57G | 0.56 |
| U51A A57U | 0.53 |
| U49G U58C | 0.2 |
| C50A C71U | 0.55 |
| C50A C71G | 0.18 |
| U48G U76A | 0.43 |
| U49A A77G | 0.46 |
| U49A A77U | 0.9 |
| U49A U74A | 1.34 |
| U49A U74C | 0.95 |
| U51A A56U | 0.68 |
